Source: patent publication US20240052052A1 (published 2024)
Where a chain is given by its changes, count along the chain named.

B1: ch110D4G4-hIgG4 (antibody, V domains shown)
VH: EVQLQQSGPGLVKPGASVKISCRASGYLFTGYYMNWVKQSPEKSLEWIGEINPNTGDPRYDQKFKAKATLTVDRSSSTAYMHLKSLTSEDSAVYFCARRDYGTSLDYWGQGTTLTVTS
VL: DVQITQSPSYLAASPGETITINCRASKSISKYLAWYQEKPGKTNKLLIYSGSTLQSGIPSRFSGSGSGSDFTLTISSLEPEDFAMYYCQQHNEYPLTFGAGTKLELK
B2: 101H9G9A2-hIgG (antibody, V domains shown)
VH: QVQLLQPGAELVRPGSSVKLSCKASDYTFTSYWMDWVKQRPGQGLEWIGNIYPSDSKTHYNQKFKDKATLTVDKSSSTAYMQLNSLTSEDSAVYYCARRGGYYAYAMDYWGQGTSVTVSS
VL: DIVMTQSPSSLSVSAGEKVTMRCKSSQSLLNSGNQDNYLAWYQQKPGQPPKLLLYGARIRESGVPDRFIGSGSGTDFTLTISSVQAEDLAVYYCQNDHSYPYTFGGGTKVEIK
B3: 107D10D11-hIgG (antibody, V domains shown)
VH: QIQLKQSGPGLVQPSQSLSITCTVSGFSLSSYGVNWVRQSPGKGLEWLGMIWSGGNTDYNAAFISRVSFTKDNSKSQVFFTMNSLQADDTAIYYCARIWYYGMDYWGQGTSVTVSS
VL: DIVMTQSQKFMSTTVGDRVSITCKASQNVGTAVAWFQQKPGQSPKILIYSASIRYPGVPDRFTGSGSGTDFTLTTSNVQSEDLADYFCLQYITFPRTFGGGTKLYIK
B4: 81A1F8-hIgG1 (antibody, V domains shown)
VH: EVQLQQSGPELVKPGASVKISCKATGYLFTGYYMNWVKQSPEKSLEWIGEINPNTGDTNNNQKFKAKATMTVDRSSSTAYMQLKRLTSEDSAVYYCVRRDYGTSLDYWGQGTTLTVSS
VL: B1 VL with S30N, Y49H, G66R, S69T, S77N, L96I
B5: 33E7E12 (antibody, V domains shown)
VH: EVKLEESGGGLVQPGGSMKLSCFVSGFTFSNSWMNWVRQSPEKGLEWVAQIQLKSDNYATRYVESVRGRFIISRDDSKSSVSLQMNNLRTEDTGIYYCSSGTDYWGQGTTLTVSS
VL: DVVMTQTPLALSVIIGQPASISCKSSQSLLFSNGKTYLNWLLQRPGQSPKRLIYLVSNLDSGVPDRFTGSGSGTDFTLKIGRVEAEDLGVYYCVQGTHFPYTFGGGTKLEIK
B6: 81A1F8 (antibody, V domains shown)
VH: B4 VH
VL: B1 VL with S30N, Y49H, G66R, S69T, S77N, L96I
B7: 110D4G4 (antibody, V domains shown)
VH: B1 VH
VL: B1 VL
B8: 101H9G9A2 (antibody, V domains shown)
VH: B2 VH
VL: B2 VL
B9: 107D10D11 (antibody, V domains shown)
VH: B3 VH
VL: B3 VL
B10: ch81A1F8-hIgG4 (antibody, V domains shown)
VH: B4 VH
VL: B1 VL with S30N, Y49H, G66R, S69T, S77N, L96I
B11: 81A1F8-VH-11/VL-11 (antibody, V domains shown)
VH: QVQLVQSGAEVKKPGASVKVSCKASGYLFTGYYMNWVRQAPGQGLEWMGEINPNTGDTNNNQKFKARVTMTVDRSISTAYMELSRLRSDDTAVYYCVRRDYGTSLDYWGQGTLVTVSS
VL: DVQITQSPSSLSASVGDRVTITCRASKSINKYLAWYQQKPGKAPKLLIHSGSTLQSGVPSRFSGSRSGTDFTLTISSLQPEDFATYYCQQHNEYPITFGQGTKLEIK
B12: 81A1F8-VH-31/VL-41 (antibody, V domains shown)
VH: B11 VH with G44R, M70I, I76A, R85S, D89E
VL: B11 VL with S10T, D70E, E81D
B13: 81A1F8-VH-11/VL-41 (antibody, V domains shown)
VH: B11 VH
VL: B11 VL with S10T, D70E, E81D
B14: 81A1F8-VH-31/VL-31 (antibody, V domains shown)
VH: B11 VH with G44R, M70I, I76A, R85S, D89E
VL: B11 VL with A43V
B15: 81A1F8-VH-11/VL-21 (antibody, V domains shown)
VH: B11 VH
VL: B11 VL with S10F, D70E
B16: 81A1F8-VH-21/VL-31 (antibody, V domains shown)
VH: B11 VH with I76T, R85S, D89E
VL: B11 VL with A43V
B17: 81A1F8-VH-21/VL-41 (antibody, V domains shown)
VH: B11 VH with I76T, R85S, D89E
VL: B11 VL with S10T, D70E, E81D
B18: 81A1F8-VH-21/VL-21 (antibody, V domains shown)
VH: B11 VH with I76T, R85S, D89E
VL: B11 VL with S10F, D70E
B19: 81A1F8-VH-21/VL-11 (antibody, V domains shown)
VH: B11 VH with I76T, R85S, D89E
VL: B11 VL
B20: 81A1F8-VH-31/VL-11 (antibody, V domains shown)
VH: B11 VH with G44R, M70I, I76A, R85S, D89E
VL: B11 VL
B21: 58F10-1F6 (antibody, V domains shown)
VH: EVQLRQSGPELVKPGAAVKISCKASGYSFTGYHMNWVKQSPEKSLEWIGEINPITSGITYNQIFKAKATLTVDKSSSTAYLQLKSLTSEDSAVYYCTRRDYGTSLDYWGQGTTLTVSS
VL: DIQMTQITSSLSASLGDRVTITCRASQDISNYLNWYQQKPDGTVKLLIYYTSRLLSGVPSRFSGSGSGTDYSLTISNLEQEDIATYFCQQDHTLPRTFGGGTKLEIR
B22: 71A4F12 (antibody, V domains shown)
VH: EVQLQQSGPELVKPGASVKIPCKASGYTFTAYNMDWVKQSHGMSLEWIGDINPNNGDTVYNQNFKGKATLTVDKSSSTAYMELRSLTSEDTAVYYCARRGSYYYGSSHYALDFWGQGTSVSVSS
VL: B21 VL with D17N, T22S, S30R, H92N, T93S, K103R
B23: 56A7E3 (antibody, V domains shown)
VH: B22 VH with N54I, D57G, V59I, K65E, M81L
VL: B21 VL
B24: 73H5-1G2 (antibody, V domains shown)
VH: QVQLKQSGPGLVQPSQSLSITCTVSGFSLTNYGVHWIRQSPGKGLEWLGVIWRGGSTDYNAAFMSRLSITKDNSKSQVFFQMNSLQAADTAIYYCANNYGYDCFAYWGQGTLVTVSA
VL: B1 VL with S30I, S69T, S76T, K103R
B25: 100F2E3 (antibody, V domains shown)
VH: B2 VH with L5Q, A24T, Y60S, K65R, A104G
VL: B2 VL with R22S, L54I, R58S, I69T, V110L

Molecular target: T1, human CD24 (human, UniProt P25063 27-59, heavily glycosylated, GPI-anchored (as described in the background))
T1 chain: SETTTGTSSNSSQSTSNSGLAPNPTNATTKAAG
Test: FACS binding; Huh7 cells

Compared with B1, B2 is 2.1-fold lower in EC50: 1.72 nM for the first, 0.815 nM for the second. The second is the more potent here.

B3 gave an EC50 of 1.39 nM.

Molecular target: T2, Human CD24-mFc (human, UniProt P25063 27-59)
T2 chain: T1 chain
Test: SPR (BIAcore); hIgG1

In the case of B4, the Kd is reported as 2.29 nM.

Molecular target: T2, Human CD24-mFc
Test: SPR (BIAcore)

Compared with B5, B6 is 32-fold lower in Kd: 3.08 nM for the first, 0.095 nM for the second.

First: B7
Second: B8
The Kd of the first is 10-fold lower: 0.124 nM for the first, 1.24 nM for the second. The first binds more tightly here.

In the case of B9, the Kd is reported as 0.762 nM.

Molecular target: T1, human CD24
Test: FACS binding; DoHH2 cells

Compared with B5, B6 is 6.2-fold lower in EC50: 5.08 nM for the first, 0.819 nM for the second. The second is the more potent here.

Going from B7 to B8, the EC50 falls from 0.61 nM to 0.218 nM (2.8-fold).

Molecular target: T1, human CD24
Test: FACS binding; MCF7 cells

Compared with B10, B2 is 1.9-fold lower in EC50: 4.09 nM for the first, 2.2 nM for the second.

B3 was tested, and the EC50 was 2.19 nM.

Molecular target: T2, Human CD24-mFc
Test: SPR (BIAcore); hIgG4

In the case of B10, the Kd is reported as 2.23 nM.

Molecular target: T2, Human CD24-mFc
Test: BLI (Gatorprime)

Compared with B11, B12 is far higher in Kd: 0.0204 nM for the first, 21600 nM for the second.

Compared with B13, B14 is 1.8-fold higher in Kd: 0.619 nM for the first, 1.11 nM for the second.

First: B15
Second: B16
The Kd of the first is 5.1-fold lower: 0.139 nM for the first, 0.712 nM for the second. The first binds more tightly here.

Going from B17 to B18, the Kd falls from 0.525 nM to 0.0819 nM (6.4-fold).

Going from B19 to B20, the Kd rises from 0.0158 nM to 0.247 nM (16-fold). The first binds more tightly here.

B10 gave a Kd of 0.241 nM.

Molecular target: T1, human CD24
Test: FACS binding; Nalm6 cells

First: B5
Second: B21
The EC50 of the first is 3.3-fold lower: 21.5 nM for the first, 70.6 nM for the second.

B22 and B23 are within 1.5-fold of each other in EC50: 24.9 nM for the first, 29.2 nM for the second.

Going from B6 to B7, the EC50 rises from 11.4 nM to 24.6 nM (2.2-fold). The first is the more potent here.

Compared with B24, B8 is 42-fold lower in EC50: 108 nM for the first, 2.55 nM for the second. The second is the more potent here.

Work on B25 yielded an EC50 of 7.84 nM.
